{
  "source": "patent US5463022A",
  "about": "“N-acetylcarboxymethylchitosan derivatives and process for preparation thereof” (priority 1990, dated 1995)",
  "key": {"[1]": {"test_system": "Walker 256", "test": "Concentration of 3H-labeled complexes in tumor (Walker 256) of rats", "format": "in vivo, female Wistar rats", "conditions": "10 mg/Kg, carotids, 1440 min", "procedure": "The radioactivity of the tissues separated was measured in the following manner. […] The resulting ^3 H2 O was added to a scintillator (\"AQUASOL-2\", NEN) and then measured by liquid scintillation counter (\"LSC-3600\", ALOKA). The value of radioactivity so measured was calibrated by the external standard radiation source method."}, "[2]": {"test": "Plasma concentration of 3H-labeled complexes in tumor-bearing rats (AUC)", "format": "in vivo, female Wistar rats", "conditions": "10 mg/Kg; for AUCo-oo in Plasma: carotids; for increase of retention in blood compared with the referential complexes (AUC): ratio to referential complexes", "method": "Thus, the complexes which were obtained as the final products of Examples 17, 18 and 19 above and had the polyethylene glycol (PEG) contents of 6%, 21% and 43%, respectively, and of which the MTX portions were labelled with ^3 H, were prepared and employed as the ^3 H-labeled test compounds for use as Test Samples 1, 2 and 3. Further, the complexes same as those above-mentioned complexes except that the PEG portion was eliminated therefrom and the MTX portion was ^3 H-labeled, were also prepared and used as referential ^3 H-labeled compounds. In each of the complexes used as Test Samples 1, 2 and 3 and the complexes used as the referential complexes, the peptide chain which was bonded to the 2-amino group of the carboxymethylglucosamine unit of these tested complexes was Gly-Phe-Phe. The PEG portion present in the complexes as Test Samples 1, 2 and 3 was the PEG1 (molecular weight: 5,000) as described in Example 17.\nIn the following experiment, there were employed such tumor-bearing female Wistar rats which had received the subcutaneous transplantation of cancer cells, Walker 256, to an inguinal part and subsequently had been raised for 6 days. Each solution of the test sample was prepared for administration, by suitably diluting the ^3 H-labeled test sample complex with a solution of a corresponding non-radioactively labeled complex in physiological saline. Using three rats per group, the solution of the test sample was administered into the carotids of rats at a dose of 10 mg/Kg of the complex.\nUnder ether anesthesia, blood was sampled from the carotid of rats periodically at the ends of 30 minutes, 1 hour, 2 hours, 4 hours and 6 hours after the administration, and the blood was centrifuged to separate the plasma. Upon elapsed time of 24 hours after the administration, blood was collected from rats under ether enesthesia until the rats were sacrificed under exsanguination. Several tissues and organs were separated from the sacrificed rats. After weighing the whole or some parts of the tissues and organs, their radioactivities were measured.\nThe radioactivity of the tissues separated was measured in the following manner. After each sample of tissue was collected in a combustion cone and was dried, the sample was combusted in an automatic sample-combusting apparatus (\"ASC-113\", ALOKA). The resulting ^3 H2 O was added to a scintillator (\"AQUASOL-2\", NEN) and then measured by liquid scintillation counter (\"LSC-3600\", ALOKA). The value of radioactivity so measured was calibrated by the external standard radiation source method.\nThe test results are presented in FIG. 29 and FIG. 30 of the accompanying drawings as well as in Table 1 given hereinafter. FIG. 29 is a graph showing time-dependent variations in the concentration of each sample complex present in the plasma as measured up to the end of 24 hours after the administration of the complex. FIG. 30 is a graph showing the distributions of each sample complex present in tissues of the rat body which are expressed as the concentration of the complex in term of the percentages on the basis of the dose of the complex."}, "[3]": {"test_system": "Sarcoma 180", "test": "Concentration of 3H-labeled compound in cancer tissue (Sarcoma 180) of mice", "format": "in vivo, male ICR mice", "conditions": "20 mg/Kg, caudal vein, up to 24 hours, FIG. 19", "source_text": "(§1) The N-acetylcarboxymethylchitosan--Gly-Gly-Gly--MTX complex of Example 2, in which the MTX portion had been ^3 H-labeled, was used as a test sample compound. In addition, an ^3 H-labeled product of the partially N-acetylated carboxymethylchitosan as obtained in the course of the process of Example 1 was employed as a referential sample.\n(§2) In the following experiment, there were employed tumor-bearing male ICR mice which had received subcutaneous implantation of Sarcoma 180 and subsequently had been raised for 10 days. The test sample compound was dissolved in physiological saline. Using three mice per group, the solution of the test sample compound was administered at a dose of 20 mg/Kg through the caudal vein. At the ends of 15 minutes, 30 minutes, 1 hour, 2 hours, 6 hours and 24 hours after the administration, the femoral artery and femoral vein of the mice of the respective groups were cut to collect blood samples. The radioactivity of a serum sample, which had been obtained by centrifuging each of the blood samples, and the radioactivity of a cancer tissue taken from the corresponding mouse were measured by the combustion method. In this way, the concentrations of the test sample compound present in the serum and the cancer tissue were evaluated.\n(§3) The test results are plotted in FIGS. 18 and 19 of the accompanying drawings. […]"}, "[4]": {"test": "Serum concentration of 3H-labeled compound after i.v. administration in tumor-bearing mice", "format": "in vivo, male ICR mice", "conditions": "20 mg/Kg, caudal vein, 15 minutes to 24 hours, FIG. 18", "source_text": "as §1, §2, §3"}},
  "data": [
    {"substance": "N-acetylcarboxymethylchitosan-(PEG1)--Gly-Phe-Phe--MTX [Test Sample 1]", "values": [
      {"measurement": "Concentration of Sample in Tumor at end of 24 hrs", "setting": "[1]", "result": "0.22 % of dose/g"},
      {"measurement": "AUCo-oo in Plasma", "setting": "[2]", "result": "20.85 % of dose · hr/ml"},
      {"measurement": "increase of retention in blood compared with the referential complexes (AUC)", "setting": "[2]", "result": "about 1.3 times"}
    ]},
    {"substance": "N-acetylcarboxymethylchitosan-(PEG1)--Gly-Phe-Phe--MTX [Test Sample 2]", "values": [
      {"measurement": "Concentration of Sample in Tumor at end of 24 hrs", "setting": "[1]", "result": "0.35 % of dose/g"},
      {"measurement": "AUCo-oo in Plasma", "setting": "[2]", "result": "46.20 % of dose · hr/ml"},
      {"measurement": "increase of retention in blood compared with the referential complexes (AUC)", "setting": "[2]", "result": "about 3 times"}
    ]},
    {"substance": "N-acetylcarboxymethylchitosan-(PEG1)--Gly-Phe-Phe--MTX [Test Sample 3]", "values": [
      {"measurement": "Concentration of Sample in Tumor at end of 24 hrs", "setting": "[1]", "result": "0.44 % of dose/g"},
      {"measurement": "AUCo-oo in Plasma", "setting": "[2]", "result": "45.52 % of dose · hr/ml"},
      {"measurement": "increase of retention in blood compared with the referential complexes (AUC)", "setting": "[2]", "result": "about 3 times"}
    ]},
    {"substance": "N-acetylcarboxymethylchitosan--Gly-Gly-Gly--MTX [Example 2]", "values": [
      {"measurement": "concentration in cancer tissue versus simple polysaccharide", "setting": "[3]", "result": "can concentrate in a cancer tissue"},
      {"measurement": "retention in blood versus simple polysaccharide referential sample", "setting": "[4]", "result": "comparable to or longer than the retention of the simple polysaccharide"}
    ]}
  ]
}
